Test results reported in article PMC4269414, “Stubborn Contaminants: Influence of Detergents on the Purity of the Multidrug ABC Transporter BmrA” (PLoS ONE, 2014).
Each block holds one binder with its values, some of them ahead of it.

Legend:
[1] = biological target: the molecule itself; test: SEC; HiLoad 16/60 Superdex 200 PG, 25 mM Tris-HCl pH 8.0, 150 mM NaCl with detergent (DDM, UDM, UTM, LMNG, LDAO or FC12), 4°C; elution volume compared with that expected for dimers in detergent micelles
[2] = biological target: the molecule itself; test: crystal structure; OmpF crystallised from the FC12-purified BmrA sample with 5 mM ADP; PEG 1500, 2-methyl-2,4-pentanediol, 0.1 M Tris-HCl pH 8.0, 19°C; space group C2; molecular replacement with an OmpF trimer
[3] = biological target: T1, E504Q BmrA mutant, full-length, His6-tagged (uncleaved) (Bacillus subtilis, UniProt O06967 1-589, E504Q); test: pull-down; second Ni2+ High Trap chelating column in DDM after partial trypsin cleavage of the N-terminal His6 tag; flow-through against the peak eluted with 250 mM imidazole, fractions on SDS-PAGE; details: both partners purified
T1 construct: BmrA, Bacillus subtilis, E504Q mutant; the part of the sample left uncut after a short trypsin digestion with 2 mM ATP and MgCl2; also called tagged, uncleaved monomer; source: E. coli membranes, solubilised with DDM, purified (Ni2+ high trap chelating column, PD-10 desalting); not shown: His6, N-terminal, kept
T1 sequence (looked up): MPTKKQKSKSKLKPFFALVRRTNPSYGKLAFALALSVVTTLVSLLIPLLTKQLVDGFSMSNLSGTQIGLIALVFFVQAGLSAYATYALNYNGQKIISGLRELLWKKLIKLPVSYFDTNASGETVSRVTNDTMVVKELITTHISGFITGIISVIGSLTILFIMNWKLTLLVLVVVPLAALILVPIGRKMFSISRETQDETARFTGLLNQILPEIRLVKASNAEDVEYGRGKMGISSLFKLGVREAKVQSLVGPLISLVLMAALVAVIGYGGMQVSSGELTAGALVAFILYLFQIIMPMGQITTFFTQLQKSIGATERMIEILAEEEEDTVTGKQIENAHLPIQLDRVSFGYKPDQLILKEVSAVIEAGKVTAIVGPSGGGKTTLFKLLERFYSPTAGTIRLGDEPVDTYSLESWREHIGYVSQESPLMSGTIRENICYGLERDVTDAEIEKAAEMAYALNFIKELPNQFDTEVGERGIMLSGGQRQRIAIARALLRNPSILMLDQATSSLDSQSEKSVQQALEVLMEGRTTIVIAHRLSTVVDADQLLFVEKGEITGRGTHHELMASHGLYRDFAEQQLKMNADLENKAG

B1: BmrA (Bacillus multidrug resistance ATP), 6-histidine N-terminal tag (natural protein, Bacillus subtilis, UniProt O06967 1-589, looked up)
chain: MPTKKQKSKSKLKPFFALVRRTNPSYGKLAFALALSVVTTLVSLLIPLLTKQLVDGFSMSNLSGTQIGLIALVFFVQAGLSAYATYALNYNGQKIISGLRELLWKKLIKLPVSYFDTNASGETVSRVTNDTMVVKELITTHISGFITGIISVIGSLTILFIMNWKLTLLVLVVVPLAALILVPIGRKMFSISRETQDETARFTGLLNQILPEIRLVKASNAEDVEYGRGKMGISSLFKLGVREAKVQSLVGPLISLVLMAALVAVIGYGGMQVSSGELTAGALVAFILYLFQIIMPMGQITTFFTQLQKSIGATERMIEILAEEEEDTVTGKQIENAHLPIQLDRVSFGYKPDQLILKEVSAVIEAGKVTAIVGPSGGGKTTLFKLLERFYSPTAGTIRLGDEPVDTYSLESWREHIGYVSQESPLMSGTIRENICYGLERDVTDAEIEKAAEMAYALNFIKELPNQFDTEVGERGIMLSGGQRQRIAIARALLRNPSILMLDEATSSLDSQSEKSVQQALEVLMEGRTTIVIAHRLSTVVDADQLLFVEKGEITGRGTHHELMASHGLYRDFAEQQLKMNADLENKAG
notes: also called multidrug ABC transporter BmrA; source: E. coli C41(DE3) membranes, solubilised and purified in detergent (Q-Sepharose and Ni column in FC12; or Ni-NTA and SEC in DDM, UDM, UTM, LMNG, LDAO or FC12); not shown: His6, N-terminal, kept
stoichiometry N [1]: 2

B2: Outer membrane protein F (OmpF) (natural protein, E. coli (endogenous in C41(DE3)), UniProt P02931 23-362, looked up)
chain: AEIYNKDGNKVDLYGKAVGLHYFSKGNGENSYGGNGDMTYARLGFKGETQINSDLTGYGQWEYNFQGNNSEGADAQTGNKTRLAFAGLKYADVGSFDYGRNYGVVYDALGYTDMLPEFGGDTAYSDDFFVGRVGGVATYRNSNFFGLVDGLNFAVQYLGKNERDTARRSNGDGVGGSISYEYEGFGIVGAYGAADRTNLQEAQPLGNGKKAEQWATGLKYDANNIYLAANYGETRNATPITNKFTNTSGFANKTQDVLLVAQYQFDFGLRPSIAYTKSKAKDVEGIGDVDLVNYFEVGATYYFNKNMSTYVDYIINQIDSDNKLGVGSDDTVAVGIVYQF
notes: Outer membrane protein F of E. coli, identified by mass spectrometry as P02931; structure deposited as PDB 4JFB, solved with a trimer of PDB 2ZFG as search model; The expression strain is C41(DE3), whose OmpF may differ from that entry; also called outer membrane porin OmpF; source: endogenous, E. coli C41(DE3); co-extracted and co-purified with BmrA in FC12, crystallised from that sample
stoichiometry N [2]: 3

binding result [3]: binds
B3: E504Q BmrA mutant, untagged, cleaved by trypsin (starts at Leu12) (domain or fragment, Bacillus subtilis, UniProt O06967 12-589, looked up)
chain: LKPFFALVRRTNPSYGKLAFALALSVVTTLVSLLIPLLTKQLVDGFSMSNLSGTQIGLIALVFFVQAGLSAYATYALNYNGQKIISGLRELLWKKLIKLPVSYFDTNASGETVSRVTNDTMVVKELITTHISGFITGIISVIGSLTILFIMNWKLTLLVLVVVPLAALILVPIGRKMFSISRETQDETARFTGLLNQILPEIRLVKASNAEDVEYGRGKMGISSLFKLGVREAKVQSLVGPLISLVLMAALVAVIGYGGMQVSSGELTAGALVAFILYLFQIIMPMGQITTFFTQLQKSIGATERMIEILAEEEEDTVTGKQIENAHLPIQLDRVSFGYKPDQLILKEVSAVIEAGKVTAIVGPSGGGKTTLFKLLERFYSPTAGTIRLGDEPVDTYSLESWREHIGYVSQESPLMSGTIRENICYGLERDVTDAEIEKAAEMAYALNFIKELPNQFDTEVGERGIMLSGGQRQRIAIARALLRNPSILMLDQATSSLDSQSEKSVQQALEVLMEGRTTIVIAHRLSTVVDADQLLFVEKGEITGRGTHHELMASHGLYRDFAEQQLKMNADLENKAG
notes: BmrA, Bacillus subtilis, E504Q mutant, cut by trypsin between Lys11 and Leu12; The His6 tag is lost together with residues 1-11; also called untagged BmrA; untagged, cleaved, monomer
